The term Km denotes the substrate concentration at which the rate is half of its maximum.

Substrate in the data set: O=C1CN[C@H](C(=O)O)C1
In words: purified protein. It is filed as biochemical, Homo sapiens. The settings on record: NADH binds the HsBDH2:NADH complex; receives the pro-S hydrogen from NADH.

B1: 4-oxo-L-proline reductase (HsBDH2) (Homo sapiens) (protein)
chain: MGRLDGKVIILTAAAQGIGQAAALAFAREGAKVIATDINESKLQELEKYPGIQTRVLDVTKKKQIDQFANEVERLDVLFNVAGFVHHGTVLDCEEKDWDFSMNLNVRSMYLMIKAFLPKMLAQKSGNIINMSSVASSVKGVVNRCVYSTTKAAVIGLTKSVAADFIQQGIRCNCVCPGTVDTPSLQERIQARGNPEEARNDFLKRQKTGRFATAEEIAMLCVYLASDESAYVTGNPVIIDGGWSL
Take B1: the Km was found to be 176 µM.
